According to article PMC7307210, “Small sequence variations between two mammalian paralogs of the small GTPase SAR1 underlie functional differences in coat protein complex II assembly” (The Journal of Biological Chemistry, 2020):

Target: the molecule itself
Assay: liposome aggregation assay (nanoparticle tracking); 1 μg SAR1 with 100-nm liposomes and GMP-PNP in HKM buffer, 3 h at 37 °C; particle number and size by NanoSight; self-association on a membrane surface

Protein | binding result
SAR1A (natural protein, human SAR1A, full-length (198 residues), with the N-terminal amphipathic helix; also called Secretion-associated Ras-related GTPase 1 A; source: E. coli, purified as GST fusion (GSH-agarose), eluted by thrombin cleavage) not shown | binds
SAR1B (natural protein, human SAR1B, full-length (198 residues), with the N-terminal amphipathic helix; also called Secretion-associated Ras-related GTPase 1 B; source: E. coli, purified as GST fusion (GSH-agarose), eluted by thrombin cleavage) not shown | binds
